Assay results published in article PMC10397247.
Each block holds one binder with its values, some of them ahead of it.

What was measured:
Test in all cases: two-hybrid library CCNG1;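 note: natural log of median RNA to DNA barcode read ratio; higher means stronger binding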
[1] = target: T1, P7bH1
T1 chain: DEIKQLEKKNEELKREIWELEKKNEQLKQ

[2] = target: T2, P9bH1
T2 chain: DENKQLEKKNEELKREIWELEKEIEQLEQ

[3] = target: T3, P8bH1
T3 chain: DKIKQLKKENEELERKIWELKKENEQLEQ

[4] = target: T4, P6bH1
T4 chain: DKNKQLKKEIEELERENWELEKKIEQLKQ

[5] = target: T5, P5bH1
T5 chain: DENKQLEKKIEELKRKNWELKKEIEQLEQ

[6] = target: T6, P7A-bA
T6 chain: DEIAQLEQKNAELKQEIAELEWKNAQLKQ

[7] = target: T7, P6A-bA
T7 chain: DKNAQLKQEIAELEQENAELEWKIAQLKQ

[8] = target: T8, P5A-bA
T8 chain: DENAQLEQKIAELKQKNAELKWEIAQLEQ

[9] = target: T9, P8A-bA
T9 chain: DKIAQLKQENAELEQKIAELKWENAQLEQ

[10] = target: T10, P9A-bA
T10 chain: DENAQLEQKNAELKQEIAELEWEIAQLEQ

[11] = target: T11, 4H932-bN
T11 chain: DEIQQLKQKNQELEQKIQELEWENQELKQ

[12] = target: T12, 4H796-bN
T12 chain: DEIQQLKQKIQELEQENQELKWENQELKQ

[13] = target: T13, 4H2760-bN
T13 chain: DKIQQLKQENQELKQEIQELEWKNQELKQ

[14] = target: T14, 4H349-bN
T14 chain: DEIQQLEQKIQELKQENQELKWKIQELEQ

[15] = target: T15, 4H2859-bN
T15 chain: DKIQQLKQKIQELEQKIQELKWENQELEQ

[16] = target: T16, 4H264-bN
T16 chain: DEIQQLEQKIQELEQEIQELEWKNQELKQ

[17] = target: T17, 4H949-bN
T17 chain: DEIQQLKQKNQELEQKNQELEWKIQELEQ

[18] = target: T18, 4H2585-bN
T18 chain: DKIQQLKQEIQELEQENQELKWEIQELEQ

[19] = target: T19, 4H730-bN
T19 chain: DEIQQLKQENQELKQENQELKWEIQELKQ

[20] = target: T20, 4H3381-bN
T20 chain: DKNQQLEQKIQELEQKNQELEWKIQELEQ

[21] = target: T21, 4H3364-bN
T21 chain: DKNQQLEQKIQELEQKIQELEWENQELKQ

[22] = target: T22, 4H56-bN
T22 chain: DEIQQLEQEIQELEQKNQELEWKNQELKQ

[23] = target: T23, 4H3297-bN
T23 chain: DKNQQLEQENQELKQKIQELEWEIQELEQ

[24] = target: T24, 4H346-bN
T24 chain: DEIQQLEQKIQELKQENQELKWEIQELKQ

[25] = target: T25, 4H2931-bN
T25 chain: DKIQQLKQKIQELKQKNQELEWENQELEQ

[26] = target: T26, 4H3041-bN
T26 chain: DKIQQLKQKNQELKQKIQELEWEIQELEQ

[27] = target: T27, P8mS
T27 chain: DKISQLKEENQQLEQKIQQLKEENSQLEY

[28] = target: T28, P9mS
T28 chain: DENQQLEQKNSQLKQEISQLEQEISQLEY

interaction score [1]: -2.02
interaction score [2]: -0.9
interaction score [3]: 0.944
interaction score [4]: 1.31
interaction score [5]: -0.609
B1: P5bH1 (peptide)
chain: DENKQLEKKIEELKRKNWELKKEIEQLEQ

interaction score [6]: -1.32
interaction score [7]: 2.33
interaction score [8]: -1.22
interaction score [9]: 0.0376
interaction score [10]: -0.7
B2: P5A-bA (peptide)
chain: DENAQLEQKIAELKQKNAELKWEIAQLEQ

interaction score [11]: -1.52
interaction score [12]: -0.881
interaction score [13]: -1.01
interaction score [14]: 1.61
interaction score [15]: 0.161
interaction score [16]: -0.828
interaction score [17]: -0.975
interaction score [18]: -0.804
interaction score [19]: -0.949
interaction score [20]: -2.06
interaction score [21]: -0.855
interaction score [22]: -0.978
interaction score [23]: -0.64
interaction score [24]: 2.36
interaction score [25]: -0.905
interaction score [26]: -0.321
B3: 4H2585-bN (peptide)
chain: DKIQQLKQEIQELEQENQELKWEIQELEQ

interaction score [27]: -1.02
interaction score [28]: -0.61
B4: P8mS (peptide)
chain: DKISQLKEENQQLEQKIQQLKEENSQLEY
